Measured values as given in patent publication US20130195871A1 (AbbVie / Abbott, published 2013).

Biological target: T1, EGFR on the cell surface (human, UniProt P00533 25-1210)
T1 construct: whole, on cells
Test: flow cytometry on cells, 2 ug/mL;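 also: cells stained for 30 to 60 min on ice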
Description: Stable cell lines overexpressing a cell-surface antigen of interest or human tumor cell lines were harvested from tissue culture flasks and resuspended in phosphate buffered saline (PBS) containing 5% fetal bovine serum (PBS/FBS). Prior to staining, human tumor cells were incubated on ice with (100 μl) human IgG at 5 μg/ml in PBS/FCS. 1-5×10⁵ cells were incubated with antibody or DVD-Ig (2 μg/mL) in PBS/FBS for 30-60 minutes on ice. […] After 30 minutes incubation on ice, cells were washed twice and resuspended in PBS/FBS. Fluorescence was measured using a Becton Dickinson FACSCalibur (Becton Dickinson, San Jose, Calif.).
The geometric mean is the n root of the multiplication product of n fluorescent signals (a1×a2×a3 . . . an). With log-transformed data the geometric mean is used to normalize the weighting of the data distribution.

GEO MEAN: 439
B1: AB400 (antibody, V domains shown)
VH: EVQLVESGGGLVQPGGSLRLSCAASGFSLTNYGVHWVRQAPGKGLEWLGVGWSGGNTDYNTPFTSRLTINKDNSKNTVYLQMNSLRAEDTAVYYCARALTWYDYEFAYWGQGTLVTVSS
VL: DILLTQSPGTLSLSPGERATLSCRASQSIYTNIHWYQQKPGQAPRLLIKYASESISGIPDRFSGSGSGTDFTLTISRLEPEDFAVYYCQQNLNWPTTFGQGTKLEIKR
notes: parent antibody
